Test results reported in patent US20260242735A1.

Legend:
Assay in all cases: alanine scan, flow cytometry, HEK293-T
[1] = target: human CD33 G151A (human) (UniProt P20138)
[2] = target: human CD33 V73A (human) (UniProt P20138)
[3] = target: human CD33 E170A (human) (UniProt P20138)
[4] = target: human CD33 Y49A (human) (UniProt P20138)
[5] = target: human CD33 F61A (human) (UniProt P20138)
[6] = target: human CD33 I105A (human) (UniProt P20138)
[7] = target: human CD33 R190A (human) (UniProt P20138)
[8] = target: human CD33 V165A (human) (UniProt P20138)
[9] = target: human CD33 D140A (human) (UniProt P20138)
Sequence of human CD33 D140A (human) (P20138 18-364 D140A limits assumed): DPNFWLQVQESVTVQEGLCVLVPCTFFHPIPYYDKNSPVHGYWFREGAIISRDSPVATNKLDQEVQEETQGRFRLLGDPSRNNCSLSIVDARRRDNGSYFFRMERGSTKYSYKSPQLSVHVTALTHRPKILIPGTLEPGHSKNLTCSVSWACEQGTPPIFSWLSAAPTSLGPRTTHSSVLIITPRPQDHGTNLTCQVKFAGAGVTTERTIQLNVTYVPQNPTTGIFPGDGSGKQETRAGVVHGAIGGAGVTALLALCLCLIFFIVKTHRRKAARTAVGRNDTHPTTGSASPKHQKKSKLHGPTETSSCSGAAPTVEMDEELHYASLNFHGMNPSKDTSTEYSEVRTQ

[10] = target: human CD33 D51A (human) (UniProt P20138)
[11] = target: human CD33 N113A (human) (UniProt P20138)
[12] = target: human CD33 H137A (human) (UniProt P20138)
[13] = target: human CD33 E81A (human) (UniProt P20138)
[14] = target: human CD33 K126A (human) (UniProt P20138)
[15] = target: human CD33 V106A (human) (UniProt P20138)
Sequence of human CD33 V106A (human) (P20138 18-364 V106A limits assumed): as the sequence (P20138 18-364 D140A limits assumed) above, with V89A, A123D counted along it

[16] = target: human CD33 T162A (human) (UniProt P20138)
[17] = target: human CD33 G123A (human) (UniProt P20138)
Sequence of human CD33 G123A (human) (P20138 18-364 G123A limits assumed): as the sequence (P20138 18-364 D140A limits assumed) above, with G106A, A123D counted along it

[18] = target: human CD33 H157A (human) (UniProt P20138)
[19] = target: human CD33 R98A (human) (UniProt P20138)
[20] = target: human CD33 K159A (human) (UniProt P20138)
[21] = target: human CD33 A182S (human) (UniProt P20138)
[22] = target: human CD33 S97A (human) (UniProt P20138)
[23] = target: human CD33 Y129A (human) (UniProt P20138)
[24] = target: human CD33 A65S (human) (UniProt P20138)
[25] = target: human CD33 C101A (human) (UniProt P20138)
[26] = target: human CD33 H57A (human) (UniProt P20138)
[27] = target: human CD33 R89A (human) (UniProt P20138)
Sequence of human CD33 R89A (human) (P20138 18-364 R89A limits assumed): as the sequence (P20138 18-364 D140A limits assumed) above, with R72A, A123D counted along it

[28] = target: human CD33 D95A (human) (UniProt P20138)
[29] = target: human CD33 D70A (human) (UniProt P20138)
[30] = target: human CD33 P145A (human) (UniProt P20138)
Sequence of human CD33 P145A (human) (P20138 18-364 P145A limits assumed): as the sequence (P20138 18-364 D140A limits assumed) above, with A123D, P128A counted along it

[31] = target: human CD33 A74S (human) (UniProt P20138)
[32] = target: human CD33 L180A (human) (UniProt P20138)
[33] = target: human CD33 L148A (human) (UniProt P20138)
Sequence of human CD33 L148A (human) (P20138 18-364 L148A limits assumed): as the sequence (P20138 18-364 D140A limits assumed) above, with A123D, L131A counted along it

[34] = target: human CD33 T185A (human) (UniProt P20138)
Sequence of human CD33 T185A (human) (P20138 18-364 T185A limits assumed): as the sequence (P20138 18-364 D140A limits assumed) above, with A123D, T168A counted along it

[35] = target: human CD33 M120A (human) (UniProt P20138)
[36] = target: human CD33 S104A (human) (UniProt P20138)
[37] = target: human CD33 N76A (human) (UniProt P20138)
Sequence of human CD33 N76A (human) (P20138 18-364 N76A limits assumed): as the sequence (P20138 18-364 D140A limits assumed) above, with N59A, A123D counted along it

[38] = target: human CD33 H143A (human) (UniProt P20138)
[39] = target: human CD33 S68A (human) (UniProt P20138)
[40] = target: human CD33 V136A (human) (UniProt P20138)
[41] = target: human CD33 K146A (human) (UniProt P20138)
Sequence of human CD33 K146A (human) (P20138 18-364 K146A limits assumed): as the sequence (P20138 18-364 D140A limits assumed) above, with A123D, K129A counted along it

[42] = target: human CD33 R144A (human) (UniProt P20138)
[43] = target: human CD33 N160A (human) (UniProt P20138)
Sequence of human CD33 N160A (human) (P20138 18-364 N160A limits assumed): as the sequence (P20138 18-364 D140A limits assumed) above, with A123D, N143A counted along it

[44] = target: human CD33 Y116A (human) (UniProt P20138)
Sequence of human CD33 Y116A (human) (P20138 18-364 Y116A limits assumed): as the sequence (P20138 18-364 D140A limits assumed) above, with Y99A, A123D counted along it

[45] = target: human CD33 R122A (human) (UniProt P20138)

Sequence of human CD33 I105A (human) (P20138 18-364 I105A limits assumed): as the sequence (P20138 18-364 D140A limits assumed) above, with I88A, A123D counted along it
Sequence of human CD33 G151A (human) (P20138 18-364 G151A limits assumed): as the sequence (P20138 18-364 D140A limits assumed) above, with A123D, G134A counted along it
Sequence of human CD33 Y49A (human) (P20138 18-364 Y49A limits assumed): as the sequence (P20138 18-364 D140A limits assumed) above, with Y32A, A123D counted along it

## Refmab #7 (WM53) (antibody)
[1]
  Mean % WT Binding: 121 % WT binding
[2]
  Mean % WT Binding: 113 % WT binding
[3]
  Mean % WT Binding: 118 % WT binding
[4]
  Mean % WT Binding: 13.7 % WT binding
[5]
  Mean % WT Binding: 123 % WT binding
[6]
  Mean % WT Binding: 56.1 % WT binding
[7]
  Mean % WT Binding: 123 % WT binding
[8]
  Mean % WT Binding: 118 % WT binding
[9]
  Mean % WT Binding: 116 % WT binding
[10]
  Mean % WT Binding: 9.2 % WT binding
[11]
  Mean % WT Binding: 80 % WT binding
[12]
  Mean % WT Binding: 114 % WT binding
[13]
  Mean % WT Binding: 98.4 % WT binding
[14]
  Mean % WT Binding: 156 % WT binding
[15]
  Mean % WT Binding: 126 % WT binding
[16]
  Mean % WT Binding: 103 % WT binding
[17]
  Mean % WT Binding: 76 % WT binding
[18]
  Mean % WT Binding: 116 % WT binding
[19]
  Mean % WT Binding: 138 % WT binding
[20]
  Mean % WT Binding: 110 % WT binding
[21]
  Mean % WT Binding: 114 % WT binding
[22]
  Mean % WT Binding: 128 % WT binding
[23]
  Mean % WT Binding: 155 % WT binding
[24]
  Mean % WT Binding: 117 % WT binding
[25]
  Mean % WT Binding: 1.8 % WT binding
[26]
  Mean % WT Binding: 112 % WT binding
[27]
  Mean % WT Binding: 94 % WT binding
[28]
  Mean % WT Binding: 104 % WT binding
[29]
  Mean % WT Binding: 81.2 % WT binding
[30]
  Mean % WT Binding: 102 % WT binding
[31]
  Mean % WT Binding: 118 % WT binding
[32]
  Mean % WT Binding: 105 % WT binding
[33]
  Mean % WT Binding: 96.7 % WT binding
[34]
  Mean % WT Binding: 106 % WT binding
[35]
  Mean % WT Binding: 92 % WT binding
[36]
  Mean % WT Binding: 117 % WT binding
[37]
  Mean % WT Binding: 93.9 % WT binding
[38]
  Mean % WT Binding: 112 % WT binding
[39]
  Mean % WT Binding: 120 % WT binding
[40]
  Mean % WT Binding: 85.9 % WT binding
[41]
  Mean % WT Binding: 91.1 % WT binding
[42]
  Mean % WT Binding: 120 % WT binding
[43]
  Mean % WT Binding: 112 % WT binding
[44]
  Mean % WT Binding: 1.7 % WT binding
[45]
  Mean % WT Binding: 25.1 % WT binding
